Experimental data as given in patent publication US20030200555A1.

Molecular target: APP695-derived polypeptide (SEQ.ID.NO.: 28) having the modified sequence NLDV (SEQ.ID.NO.: 7) (human) (UniProt P05067)
Assay: cell-based or functional assay

production of Aβ in the HEK293T cells (times the level of wild type APP695): 3
Substance: β-secretase (of the HEK293T cells in which the APP β-site mutants were expressed) (from UniProt P56817 46-501) (enzyme)
